Measured values taken from publication PMC11285730 (Open Biology, 2024).

B1: B5-5 monomer (VHH)
VHH: QVQLVESGGGLVQPGGSLRLSCAVFGSTLDNYSVGWFRQLPGKEREGLACFSRRYGAPYYADSAKDRFTISRDNAKNTVDLQLNGLKPEDTAVYYCATRSGPYCTTSVSDFDDWGRGTQVTVSS
B2: H6 monomer (VHH)
VHH: QVQLVESGGGLVQPGGSLTLSCVASESSLAPYRVAWFRQAPGKEREGVSCISRDAHPTSTYYTASVKGRFTMSRDNAKNTVYLQMNSLKPSDTAVYYCATDLGGYCSDSNYPRAWWGQGTQVTVSS
B3: A8 monomer (VHH)
VHH: QVQLVESGGGLVQAGGSLRLSCAASGGTFSTAAMGWFRQAPGEERECVASIGWRGVRTWYADSVKGRFTISRDNPQNTVYLQMNNLKSGDTAVYYCAASVGNYGLPWAHFEYDFWGQGIQVTVSS

Experiments:
Assay in all cases: BLI
Settings in all cases: both partners purified
[1] = target: T1, SARS-CoV-2 Beta RBD, biotin-tagged (SARS-CoV-2 Beta (B.1.351), E484K | N501Y, biotin)
T1 construct: source: Expi293, purified

[2] = target: T2, SARS-CoV-2 Omicron BA.1 RBD, biotin-tagged (SARS-CoV-2 Omicron BA.1, S371L | S375F | K/V417N | S477N | E484A | N501Y | Y505H, biotin)
T2 construct: source: Expi293, purified

[3] = target: T3, SARS-CoV-2 Omicron BA.4/5 RBD, biotin-tagged (SARS-CoV-2 Omicron BA.4/5, S371F | S375F | D405N | R408S | L452R | E484A | F486V | N501Y, biotin)
T3 construct: source: Expi293, purified

Binder | Kd [1] [nM] | koff [1] [s⁻¹] | kon [1] [M⁻¹ s⁻¹] | Kd [2] [nM] | koff [2] [s⁻¹] | kon [2] [M⁻¹ s⁻¹] | Kd [3] [nM] | koff [3] [s⁻¹] | kon [3] [M⁻¹ s⁻¹]
B1 | 0.0655 | 1.29e-05 | 216000 | 0.355 | 0.000204 | 576000 | 0.684 | 0.000129 | 190000
B2 | 0.677 | 0.000337 | 498000 | 22.7 | 0.00553 | 245000 | 7.08 | 0.00235 | 333000
B3 | 0.889 | 0.000289 | 326000 | 15.7 | 0.0053 | 343000 | 8.1 | 0.00283 | 349000
